Biological target: NISTmAb Primary Sample (PS 8670)
Experiment: FPLC; mAb sample after buffer exchange; sample buffer 15 mM acetic acid, 40 mM NaCl, pH 5 (ionic strength 50 mM); column and running conditions not told

percent dimers: < 1%
Substance: NISTmAb Primary Sample (PS 8670) (antibody)

— publication PMC12518842
